The text below walks through data of patent US10184137B2, “Method of producing isoprene monomer” (AJINOMOTO CO., INC., priority 2014, dated 2019).

“And” between values parts separate entries of the source, which are not always exact repeats. Equal entries are not always repeated.

Common to all, as to format: biochemical
Data set [1] deals with mevalonate kinase. As to the kind of experiment: Inhibition of each mevalonate kinase by DMAPP, GPP, FPP or DPM. As to the method:
Since GPP and FPP solutions contain methanol, methanol which was needed to keep the same methanol level at the addition to the reaction system was added to the reaction solution, which was designated as control.
Respective effect of the added 5 mM DMAPP, 0.1 mM GPP, and 0.1 mM FPP on the activity of each enzyme was measured. […] Contrarily, mcl-derived enzyme was activated by 5 mM DMAPP and its activity increased by 20% from that of the control.
Activity when 10 μl of each enzyme was added to 1 ml of the reaction system was represented by dABS/min
Effect of 1 mM diphosphomevalonate (DPM) on each enzyme was also studied.

Data set [2] concerns mevalonate kinase. The experiment in a line: Expression analysis and activity confirmation of His-tagged mevalonate kinases from pET-21a(+) and pET-28b(+). To be noted: His-spinTrap eluate after dialysis, 10 μl enzyme solution. As for the experimental part: Each obtained plasmid was used for transformation of E. coli BL21(DE3). […] When OD600 reached approximately 0.5, IPTG was added to the solution to final concentration of 1 mM. It was then cultured overnight at 20° C. Harvested cells were suspended in the buffer solution consisting of 50 mM sodium phosphate, 0.3 M NaCl and 20 mM Imidazol. Then the cells were disrupted with an ultrasonic disruptor (TOMY: UD-201, output level=3.5). After centrifugation (20,000×g, 20 min), disrupted cells were adsorbed to His-spinTrap (GE Healthcare). After washing with the same buffer solution, protein was eluted with the buffer solution consisting of 50 mM sodium phosphate, 0.3 M NaCl and 0.5 M imidazole (pH7.5). Eluate was dialyzed overnight at 4° C. with the external solution composed of 20 mM Tris-HCl (pH7.5) and 50 mM NaCl. Then, enzyme activity of each eluate in the internal dialysis solution was measured.
Activity of the internal dialysate (about 0.2 ml each) was measured with the 10 μl of enzyme solution (Table 8). Enzyme expression level was compared on activity basis between pET-21a(+) and pET-28b(+). […] It is inferred that expression level is higher in pET-28b(+). Therefore, purified enzyme expressed in pET-28b(+) was used in the further examinations.
Values were presented by decrease in absorbance per unit time per 10 μl in the enzyme reaction measurement system (dABS/min/10 μl).
(§1) Decrease in absorbance at 340 nm at 30° C. was measured to determine the enzyme activity. JASCO Corporation's spectrophotometer (V-650) was used in this study. Millimolar extinction coefficient of NADH used in this study was 6.22 mM^−1 cm^−1. […] Km value was calculated by Lineweaver-Burk plot.

Data set [3] relates to mevalonate kinase. The experiment in a line: Examination of product inhibition on each mevalonate kinase (absorbance at 386 nm, PMK addition). To be noted: 1 mM mevalonate as substrate; in words. As for the experimental part: When decrease in absorbance stopped, purified PMK was added to measure further decrease in absorbance at 386 nm.
FIG. 18 presents the SDS-PAGE profile of the purified PMK. […] Then, absorbance decreased further and finally absorbance at 386 nm decreased to 0.3 in all reaction systems. Therefore, it is inferred that mevalonate is converted into diphosphomevalonate via phosphomevalonate by adding PMK to each MVK.

Data set [4] concerns mevalonate kinase. The experiment in a line: Measurement of activity and Km value of purified mevalonate kinase (PK/LDH coupled, 340 nm). To be noted: for dABS/min at mev 0.01 mM: potassium mevalonate 0.01 mM; for dABS/min at ATP 5 mM / dABS/min at mev 0.01 mM / dABS/min at mev 0.04 mM / dABS/min at mev 0.2 mM: ATP 5 mM; for dABS/min at mev 0.04 mM: potassium mevalonate 0.04 mM; for dABS/min at mev 0.2 mM: potassium mevalonate 0.2 mM. As for the experimental part: Each obtained plasmid was used for transformation of E. coli BL21(DE3). […] When OD600 reached approximately 0.5, 0.1 mM IPTG (for cva, mma, nmr, and sce) or 1 mM (for mcl and mpd) of IPTG was added, and then the mixture was kept at 20° C. overnight to induce the target protein. Harvested cells were suspended in buffer solution A (50 mM sodium phosphate, 0.3 M NaCl and 20 mM Imidazol), and then the cells were disrupted with an ultrasonic disruptor (TOMY: UD-201). […] After centrifugation (28,000×g, 30 min), the supernatant was adsorbed onto His-Trap HP (GE Healthcare) to elute the target protein by linear concentration gradient of Imidazol (final concentration 0.5 M). Obtained protein was dialyzed by using an external solution composed of 20 mM Tris-HCl (pH 8.0) containing 1 mM DTT and 50 mM NaCl. Dialyzed protein was designated as purified enzyme. Protein quantity was measured with Bio-RAD protein assay kit and BSA standard condition.
as §1
Measured activity of each enzyme (JABS/min) was presented on Table 9 for the calculation of apparent Km value (Km app.) of each enzyme. Table 10 presents Km app., Vmax, molecular weight of the enzyme protein, protein concentration in the enzyme solution and calculated kcat.
Activity was indicated by dABS/min when 10 μl of each enzyme was added to 1 ml of reaction solution.

Where [5] appears, read: Table 11 control without terpenyl diphosphate (methanol added).
Setting [6] is: potassium mevalonate 5 mM, 10 μl enzyme in 1 ml, replicate values.
The mark [7] stands for this setting: 10 μl enzyme in 1 ml, replicate values.

B1: mpd: mevalonate kinase derived from Methanocella paludicola (SEQ ID NO:1), His-tagged purified enzyme (protein, listed as Methanocella paludicola)
chain: MTMCSAPGKVFLFGEHAVVYGKRAIACAIDLRTTVEVSRKSRGVHIHSAFKDEPDKNLYIKTAVKRMQKCADIRNVNIAVSSRIPVASGLGSSAAVTVATIGALNEEFSAGLSKKDIAYMAYQTELEVQGAASPTDTFVSTMGGTVVVPDMRTLPPITCGIVVGHTGISKSTSRMVSRVRTLKEKYPDVIDGIMDSIGDISARGEDLIKQNDYRSIGELMNVNQGLLDALGITIPELSLQIYAARQHGAYGAKITGAGGGGCMVAICDDKNCKEIATAIGRSYGDSFISKPTAEGIFIQ
modifications: His-tag
For B1, in data set [1] (setting [5]), the “enzyme activity, Control” value was 0.1573 dABS/min. Also, the “enzyme activity, Control” value in data set [1] (Table 12 control without DPM) came out at 0.148 dABS/min. Moreover, in data set [2], the “enzyme activity, pET21 system (C terminal Tag)” value (shortened to “enzyme activity, pET21 system”) stood at 0.011 dABS/min/10 μl and the “enzyme activity, pET28 system (N terminal Tag)” value (“enzyme activity, pET28 system” for short) was determined as 0.031 dABS/min/10 μl. Further, the “course of decrease in absorbance at 386 nm until PMK addition” value (“course of decrease in absorbance” below) in data set [3] was “almost linear decrease in absorbance”. In data set [4] (ATP 0.04 mM, potassium mevalonate 5 mM, 10 μl enzyme in 1 ml, replicate values), the “dABS/min at ATP 0.04 mM” value was 0.01369 dABS/min and 0.01352 dABS/min and 0.01403 dABS/min. Besides, in data set [4] (setting [6]), the “dABS/min at ATP 0.2 mM” value is 0.03262 dABS/min and 0.03252 dABS/min and 0.0325 dABS/min; the “dABS/min at ATP 1 mM” value is 0.04713 dABS/min and 0.04701 dABS/min and 0.04689 dABS/min; the “dABS/min at ATP 5 mM” value is 0.05141 dABS/min (2×) and 0.05155 dABS/min. The “affinity to mevalonate and ATP compared with the other enzymes” value in data set [4] (in words) was “higher affinity to mevalonate and ATP than the other enzymes”. Further, in data set [4] (setting [7]), the “dABS/min at mev 0.01 mM” value is 0.06401 dABS/min and 0.0638 dABS/min and 0.06377 dABS/min; the “dABS/min at mev 0.04 mM” value was 0.1211 dABS/min and 0.1213 dABS/min and 0.121 dABS/min; the “dABS/min at mev 0.2 mM” value was 0.1506 dABS/min (2×) and 0.1505 dABS/min.

B2: cva: mevalonate kinase derived from Corynebacterium variabile (SEQ ID NO:3), His-tagged purified enzyme (protein)
chain: MAPHVGHGQTVAKIILFGEHSVVYGHPAIAMPLRTLRMIARVEPTDGPGTLSGLGWTGPITEAPARFSSIVKAAEVASDFAGHPGAGLNISTESEFPPERGLGSSAAAAGAVIRAVLDAFDTPATPRELFDLTQEAETVAHGRPSGLDAVATSAEAPVHFQAGQATDLEFSPDAWIVIADSGVEGSTRETVGHVRGRFEAEPDIITALLNRLGEITDEVVVDLRTGDVQGMGARMTEAHGILGQLGVSNTQLDALVTASLGAGALGAKLTGGGRGGCVIALAATEEDAENVEKALVDAGARGTWVHAPATGQMAGEVMQ
modifications: His-tag; Corynebacterium variabile
As to B2, in data set [1] (setting [5]), the “enzyme activity, Control” value came out at 0.08338 dABS/min. In data set [1] (Table 12 control without DPM), the “enzyme activity, Control” value came to 0.07328 dABS/min. Also, in data set [2], the “enzyme activity, pET21 system” value came to 0.019 dABS/min/10 μl and the “enzyme activity, pET28 system” value amounted to 0.211 dABS/min/10 μl. Further, in data set [3], the “course of decrease in absorbance” value is “almost linear decrease in absorbance”. Besides, in data set [4] (setting [6]), the “dABS/min at ATP 0.2 mM” value was 0.005822 dABS/min and 0.005967 dABS/min and 0.005722 dABS/min; the “dABS/min at ATP 1 mM” value is 0.02063 dABS/min and 0.02015 dABS/min and 0.02051 dABS/min; the “dABS/min at ATP 5 mM” value is 0.03739 dABS/min and 0.03744 dABS/min and 0.03741 dABS/min. Further, in data set [4] (setting [7]), the “dABS/min at mev 0.01 mM” value is 0.01264 dABS/min and 0.01267 dABS/min and 0.01265 dABS/min; the “dABS/min at mev 0.04 mM” value was 0.03701 dABS/min and 0.03703 dABS/min and 0.03697 dABS/min; the “dABS/min at mev 0.2 mM” value was 0.0771 dABS/min and 0.07712 dABS/min and 0.07711 dABS/min.

B3: sce: mevalonate kinase of Saccharomyces cerevisiae encoded by the ERG12 gene, His-tagged purified enzyme (protein, UniProt P07277 1-443, looked up)
Mevalonate kinase: MSLPFLTSAPGKVIIFGEHSAVYNKPAVAASVSALRTYLLISESSAPDTIELDFPDISFNHKWSINDFNAITEDQVNSQKLAKAQQATDGLSQELVSLLDPLLAQLSESFHYHAAFCFLYMFVCLCPHAKNIKFSLKSTLPIGAGLGSSASISVSLALAMAYLGGLIGSNDLEKLSENDKHIVNQWAFIGEKCIHGTPSGIDNAVATYGNALLFEKDSHNGTINTNNFKFLDDFPAIPMILTYTRIPRSTKDLVARVRVLVTEKFPEVMKPILDAMGECALQGLEIMTKLSKCKGTDDEAVETNNELYEQLLELIRINHGLLVSIGVSHPGLELIKNLSDDLRIGSTKLTGAGGGGCSLTLLRRDITQEQIDSFKKKLQDDFSYETFETDLGGTGCCLLSAKNLNKDLKIKSLVFQLFENKTTTKQQIDDLLLPGNTNLPWTS
modifications: His-tag
For the molecule B3, the “enzyme activity, Control” value in data set [1] (setting [5]) came out at 0.1365 dABS/min. Further, the “enzyme activity, Control” value in data set [1] (Table 12 control without DPM) is recorded as 0.1028 dABS/min. In addition, in data set [2], the “enzyme activity, pET21 system” value was 0.001 dABS/min/10 μl and the “enzyme activity, pET28 system” value stood at 0.127 dABS/min/10 μl. In addition, the “course of decrease in absorbance” value in data set [3] is given as “almost linear decrease in absorbance”. In data set [4] (setting [6]), the “dABS/min at ATP 0.2 mM” value was 0.03041 dABS/min and 0.0304 dABS/min and 0.03229 dABS/min; the “dABS/min at ATP 1 mM” value was 0.07032 dABS/min and 0.07022 dABS/min and 0.0702 dABS/min; the “dABS/min at ATP 5 mM” value is 0.09422 dABS/min and 0.0941 dABS/min and 0.09418 dABS/min. In data set [4] (setting [7]), the “dABS/min at mev 0.01 mM” value is 0.01813 dABS/min and 0.01981 dABS/min and 0.01853 dABS/min; the “dABS/min at mev 0.04 mM” value was 0.05257 dABS/min and 0.05264 dABS/min and 0.05265 dABS/min; the “dABS/min at mev 0.2 mM” value is 0.11 dABS/min and 0.1103 dABS/min (2×).
